# Entries after “also recorded” stand apart in the source; their conditions may differ.
# Assays:
# [1] = target: T1, RET (UniProt P07949+Q62997); assay: RET phosphorylation in RET/GFRα1-expressing MDCK cells; assay type: cell-based, dog
# T1 construct: expressed in transfected cells
# Protocol: FIG. 4D: Dose-dependent activation of RET by GDNF in RET/GFRα1-expressing MDCK cells. […]. […] The numbers below the lanes indicate the fold of induction of RET tyrosine kinase. IP, immunoprecipitation; WB, Western blotting; P-tyr, phospho-tyrosine. The results are representative of three independent experiments.
# To detect MET activation, GFRα1- and RET/GFRα1-expressing MDCK or SHEP cells were starved overnight in MEM or RPMI 1640 with 1% FCS, respectively, and in serum-free medium for 2 h prior the induction. After 15 min incubation at 37° C. with GDNF (at indicated concentrations) or with 50 ng/ml HGF, cells were lysed as described. Cleared cell lysates were incubated with anti-MET antibodies (Santa Cruz Biotechnologies, Inc.) overnight at 4° C. Immunoprecipitates were collected with protein A-SEPHAROSE (Amersham Pharmacia Biotech), washed, separated by SDS-PAGE and transferred to HYBOND-ECL membranes. Membranes were immunoblotted with anti-phospho-tyrosine antibodies (Upstate Group Inc.) or anti-MET antibodies.
# The above procedure was also followed to detect RET phosphorylation in RET/GFRα1-expressing MDCK, however, for these experiments, anti-RET antibodies (Santa Cruz Biotechnologies, Inc.) were used for the immunoprecipitation and immunoblotting.
# [2] = system: GFRα1-expressing MDCK cells; assay: Branching tubule formation assay in 3-D collagen gel; assay type: cell-based, dog
# Protocol: (§1) From the total amount of cysts in the field, the percentage of cysts with long branches was calculated. Only branches with lengths of more than two cyst diameters were counted.
# (§2) FIG. 2C: Dose-dependence of GDNF-induced branching of GFRα1- and RET/GFRα1-expressing MDCK cells. GDNF concentrations are per ml (x-axis). Results are reported as fold of branching cysts count over the non-induced control. Means±standard errors of the mean of five to eight counted fields are shown. The results are representative of five (A and B) and three (C) independent experiments, p<0.001.
# (§3) Trypsinized cells were mixed 1:3 with collagen type I solution and plated. MEM with 10% FCS was overlaid on the gels with or without GDNF (Cephalon Inc. or R&D Systems, Inc.) or 50 ng/ml HGF. Cells in collagen were cultured for 3 days; GDNF-containing medium was changed daily. For quantification, cells were cultured for 3 days, fixed by 3% glutaraldehyde in PBS and counted under a light microscope.
# (§4) To avoid the effect of possible contamination of GDNF preparation, recombinant GDNF from two different sources were tested. One tested GDNF was expressed in baculovirus-infected insect cells (Cephalon Inc.), the other was expressed in mouse myeloma cell line NSO (R&D Systems, Inc.).
# [3] = system: RET/GFRα1-expressing MDCK cells; assay: as above; assay type: cell-based, dog
# Protocol: as §1, §2, §3, §4
# [4] = system: GFRα1-expressing, RET deficient MDCK cells; assay: Chemoattraction assay on collagen matrix with soaked agarose beads; assay type: cell-based, dog; details: beads soaked in GDNF 10 ng/μl; collagen I; 3 days
# Description: (§5) FIG. 3B: Chemoattraction assay on collagen matrix. Only RET/GFRα1-expressing cells migrate towards GDNF-soaked agarose beads. BSA-soaked agarose beads were used as negative controls. Agarose beads are denoted by white circles. Note that mock transfected, GFRα1-expressing and RET/GFRα1-expressing cells form clusters of adherent cells (denoted by arrowhead) with BSA-soaked beads after 3 days, whereas RET/GFRα1 cells migrating towards GDNF bead are dissociated.
# (§6) 3.5 cm dishes were coated with collagen I solution and 20,000 cells were seeded on the coated dish. GDNF-soaked agarose beads, prepared as described (Sainio et al., 1997), were put on the gel before it solidified. Cells around the beads were photographed daily.
# (§7) In another chemotaxis assay, RET/GFRα1-, GFRα1- and mock-transfected MDCK cells were seeded on culture dishes coated with collagen I. Agarose beads were soaked in GDNF (10 ng/μl) or 1% BSA. A bead was placed on top of the soft collagen, and cells were monitored for 3 days.
# [5] = system: mock-transfected MDCK cells; assay: as above; assay type: cell-based, dog; details: beads soaked in GDNF 10 ng/μl; collagen I; 3 days
# Description: as §5, §6, §7
# [6] = system: ret −/−, ret +/− and ret +/+ kidney explants; assay: Ureteric branching in cultured E11 urogenital block explants; parameters: species or system mouse
# Protocol: FIG. 8A-FIG. 8D: Urogenital blocks including the Wolffian duct (wd), mesonephros (meso) and metanephros (meta) were dissected from E11 ret −/− (panels A, B), ret +/− (panel C) and ret +/+ (panel D) mouse embryos. The two urogenital blocks from the embryos were separately cultured for 4 days. One side was cultured without GDNF (panels A, C, D) and the other side with 50 ng/ml of GDNF (panel B). Urogenital block explants were fixed and immunostained with pan-cytokeratin antibodies. Scale bar: 200 μm.
# FIG. 8E: The number of ureteric branches of ret −/−, ret +/− and ret +/+ kidneys with or without GDNF supplementation. Numbers in parenthesis indicate the kidney explants counted. […] Each result represents the mean±SEM (n=5).
# To analyze the possible role of RET-independent, GFRα1-mediated signaling in ureteric budding and branching during nephrogenesis, the ability of exogenous GDNF to induce ureteric budding or sustain its branching in ret-deficient mice was tested. E11 ret −/− urogenital blocks including kidney rudiments were cultured for 4 days with or without 50 ng/ml of GDNF (FIG. 8). […] Thus, RET-independent signaling by GDNF has an apparent role in the ureteric branching, but may be less significant in the primary bud formation.
# [7] = system: MET; assay: MET phosphorylation in Neuro-2A neuroblastoma cells; assay type: cell-based
# [8] = ligand 100 ng/ml, 3-D collagen gel
# T1 sequence (P07949 29-1114): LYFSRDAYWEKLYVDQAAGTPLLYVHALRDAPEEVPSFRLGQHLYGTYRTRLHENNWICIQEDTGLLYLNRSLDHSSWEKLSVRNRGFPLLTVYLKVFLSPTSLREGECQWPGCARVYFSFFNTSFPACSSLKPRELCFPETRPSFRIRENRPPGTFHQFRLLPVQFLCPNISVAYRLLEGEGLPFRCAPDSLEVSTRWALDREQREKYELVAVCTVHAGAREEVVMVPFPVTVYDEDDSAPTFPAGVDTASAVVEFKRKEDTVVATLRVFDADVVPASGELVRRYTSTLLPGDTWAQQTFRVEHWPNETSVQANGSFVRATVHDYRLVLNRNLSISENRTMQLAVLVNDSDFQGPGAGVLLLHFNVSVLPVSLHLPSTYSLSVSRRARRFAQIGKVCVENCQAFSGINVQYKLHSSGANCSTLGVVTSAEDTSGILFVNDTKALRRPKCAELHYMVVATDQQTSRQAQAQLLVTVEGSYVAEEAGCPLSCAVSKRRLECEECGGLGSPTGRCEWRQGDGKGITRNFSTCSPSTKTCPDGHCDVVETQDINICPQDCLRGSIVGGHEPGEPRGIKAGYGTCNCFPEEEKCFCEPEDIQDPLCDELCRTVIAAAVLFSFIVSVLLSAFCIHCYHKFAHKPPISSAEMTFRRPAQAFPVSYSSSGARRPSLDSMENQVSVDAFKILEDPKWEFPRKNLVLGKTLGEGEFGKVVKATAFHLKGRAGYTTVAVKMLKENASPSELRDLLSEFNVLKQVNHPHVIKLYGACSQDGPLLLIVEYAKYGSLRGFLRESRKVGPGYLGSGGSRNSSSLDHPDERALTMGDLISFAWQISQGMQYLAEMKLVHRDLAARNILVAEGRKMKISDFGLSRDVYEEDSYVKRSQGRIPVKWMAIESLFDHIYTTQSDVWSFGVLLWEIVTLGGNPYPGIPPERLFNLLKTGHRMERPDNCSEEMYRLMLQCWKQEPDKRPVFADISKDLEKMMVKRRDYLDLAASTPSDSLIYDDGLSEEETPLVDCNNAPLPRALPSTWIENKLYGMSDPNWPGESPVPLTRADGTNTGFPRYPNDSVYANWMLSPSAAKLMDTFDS
# T1 sequence (Q62997 25-430 limits assumed): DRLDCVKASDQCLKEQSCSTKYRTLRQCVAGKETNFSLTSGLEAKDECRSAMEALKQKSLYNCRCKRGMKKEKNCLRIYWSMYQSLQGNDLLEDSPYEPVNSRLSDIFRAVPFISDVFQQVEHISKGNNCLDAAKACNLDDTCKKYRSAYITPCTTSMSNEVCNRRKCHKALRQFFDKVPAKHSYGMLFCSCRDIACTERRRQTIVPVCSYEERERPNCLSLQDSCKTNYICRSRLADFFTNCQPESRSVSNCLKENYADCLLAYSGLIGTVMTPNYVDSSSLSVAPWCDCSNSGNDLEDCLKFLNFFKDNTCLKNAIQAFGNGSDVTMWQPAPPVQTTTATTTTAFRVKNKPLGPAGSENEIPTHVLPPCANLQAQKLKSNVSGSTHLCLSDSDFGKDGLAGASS
molecule,measurement,setting,value
"GDNF: recombinant glial cell line-derived neurotrophic factor from Cephalon Inc. (baculovirus-infected insect cells) or R&D Systems, Inc. (mouse myeloma NSO) (protein, UniProt P39905 78-211, looked up) Glial cell line-derived …: SPDKQMAVLPRRERNRQAAAANPENSRGKGRRGQRGKNRGCVLTAIHLNVTDLGLGYETKEELIFRYCSGSCDAAETTYDKILKNLSRNRRLVSDKVGQACCRPIAFDDDLSFLDDNLVYHILRKHSAKRCGCI",GDNF concentration at which RET phosphorylation reached saturation,[1],10 ng/mL
same,GDNF concentration at which RET phosphorylation was observed,[1],0.1 pg/mL
same,time to RET activation,[1]; data not shown,≥ 2 h
same,GDNF concentration that evoked tubulogenesis,"[2]; cells expressing GFRα1 but not RET, dose-response FIG. 2C",0.1 pg/ml
same,branching tubule formation,[2]; [8],formed branching tubules
same,branching tubulogenesis,"[2]; wild-type MDCK transduced with an adenovirus expressing GFRα1, data not shown",induced branching tubulogenesis
same,GDNF concentration at which cells started to branch,"[3]; cells co-expressing RET and GFRα1, dose-response FIG. 2C",0.1 ng/mL
same,branching tubule formation,[3]; [8],formed branching tubules
same,migration towards soaked agarose bead,[4],"Neither GFRα1-expressing, RET deficient cells nor mock-transfected cells, however, were attracted"
same,migration towards soaked agarose bead,[5],"Neither GFRα1-expressing, RET deficient cells nor mock-transfected cells, however, were attracted"
same,number of ureteric bud tips,"[6]; ret +/− explants, GDNF 50 ng/ml, 4 days culture",increased the number of ureteric bud tips
same,number of ureteric bud tips / ureteric branching,"[6]; ret −/− explants, GDNF 50 ng/ml, 4 days culture",increased but not to the level seen in wild type kidneys; also recorded: significantly increased ureteric branching
same,number of urogenital explants completely lacking a ureteric bud,"[6]; ret −/− explants, with or without exogenous GDNF",remained the same
same,number of ureteric bud tips,"[6]; wild-type explants, GDNF 50 ng/ml, 4 days culture",increased the number of ureteric bud tips
same,MET phosphorylation,[7],induced MET phosphorylation

# From patent publication US20080070264A1, “Intracellular Signaling-Induced Ret-Independent Gdnf Receptor-Effected Morphological Changes” (JPMORGAN CHASE BANK N.A., priority 2003, published 2008)
